Laboratory results reported in patent US20220332804A1 (CSL INNOVATION, published 2022).
Changes are numbered by the printed parent chain.

Experiments:
Experiment in all cases: SPR, KD relative to WT C2;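 further: biacore SPR at 37 °C, anti-C2 mAbs captured on anti-human IgG chips with alanine or serine point mutants of C2 as analyte, KD from 1:1 fit compared with wild-type C2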
human C2 D417A = biological target: T1, human C2 D417A (human, UniProt P06681 21-752)
T1 sequence: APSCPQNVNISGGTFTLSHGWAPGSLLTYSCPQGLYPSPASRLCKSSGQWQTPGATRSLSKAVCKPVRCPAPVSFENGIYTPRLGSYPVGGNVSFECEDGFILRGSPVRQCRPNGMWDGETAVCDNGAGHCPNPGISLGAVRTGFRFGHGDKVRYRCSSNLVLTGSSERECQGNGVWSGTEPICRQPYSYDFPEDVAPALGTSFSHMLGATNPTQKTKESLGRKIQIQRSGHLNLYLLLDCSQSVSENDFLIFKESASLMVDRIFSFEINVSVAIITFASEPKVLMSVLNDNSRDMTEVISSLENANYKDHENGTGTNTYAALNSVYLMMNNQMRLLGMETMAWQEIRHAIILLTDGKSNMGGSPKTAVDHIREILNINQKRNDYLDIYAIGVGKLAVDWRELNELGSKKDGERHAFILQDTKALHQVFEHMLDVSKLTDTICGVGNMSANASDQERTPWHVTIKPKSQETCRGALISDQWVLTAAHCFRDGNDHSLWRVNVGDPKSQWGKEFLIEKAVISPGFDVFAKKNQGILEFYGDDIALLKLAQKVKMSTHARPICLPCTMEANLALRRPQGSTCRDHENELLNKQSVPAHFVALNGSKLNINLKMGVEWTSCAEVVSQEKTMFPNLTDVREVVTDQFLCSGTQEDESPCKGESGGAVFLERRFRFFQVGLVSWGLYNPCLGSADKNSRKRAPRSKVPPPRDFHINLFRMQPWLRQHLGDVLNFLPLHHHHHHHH

human C2 R434A = biological target: T2, human C2 R434A (human, UniProt P06681 21-752)
T2 sequence: T1 sequence with A397D, R414A

human C2 N380A = biological target: T3, human C2 N380A (human, UniProt P06681 21-752)
T3 sequence: T1 sequence with N360A, A397D

human C2 D404A = biological target: T4, human C2 D404A (human, UniProt P06681 21-752)
T4 sequence: T1 sequence with D384A, A397D

B1: RF16-242 (antibody, human IgG4 S228P, lambda, V domains shown)
VH: EVQLLQSGAEVKKPGESLKISCKGSGYSFTSYWIGWVRQMPGKGLEWMGIIYPGDSDTRYSPSFQGQVTISADKSISTAYLQWSSLKASDTAMYYCARRGHYGDYFDYWGQGTLVTVSS
VL: SYELTQPPSVSVSPGQTARITCSGDALPKKYAYWYHQKSGQAPVLVIYEDRRRPSEIPERFSGSSSGTMATLTITGAQVEDEGVYFCYSRDRAGNQRVFGGGTQLTVLG
notes: pH-dependent anti-C2 antibody from a phage display library
Fold diff (human C2 D417A): 3 fold
Fold diff (human C2 R434A): 14 fold
Fold diff (human C2 N380A): 1 fold
Fold diff (human C2 D404A): 2 fold
